Reference: US8227408B2, “Leptin as an anti-amyloidogenic biologic and methods for delaying the onset and reducing Alzheimer's disease-like pathology” (Neurotez, Inc., priority 2005, dated 2012)

Assays:
β-secretase = assay: C99/C83 accumulation in SY5Y cells in presence of γ-secretase inhibitors (Western blot); format: cell-based, human; settings: 5 h
Tg2576 mice = assay: Chronic s.c. leptin infusion in Tg2576 mice under high or low fat diet; format: in vivo, mouse
Protocol: Blood was withdrawn (approximately 1 ml) from deeply anaesthetized animals by cardiocentesis and mixed with 25 μl of 164 μM EDTA anticoagulant. Plasma was prepared immediately and frozen at −70° C. Plasma leptin concentrations were determined by a radioimmunoassay (RIA) (Chung et al., Am. J Physiol. 274:R985-R990 (1998)), using a kit from LINCO Research, Inc. (Missouri).
APPswe (SEQ ID NO: 13) expressing mice (Tg2576) or wild-type littermates were maintained in pathogen-free environment at 25° C. on a 12-12 h light-dark cycle. Mice were euthanized between the ages of 31 and 40 weeks. They were provided ad libidum access for up to 9 weeks (i.e., 1 week prior to leptin treatments and 8 weeks during such treatments) to a high fat diet (D12451) containing about 45% of the total calories from fat (Research Diets, NJ) or to a low fat diet (D12450B) containing about 10% of the total calories from fat. Equal number of male and female Tg2576 mice under each diet were administered leptin or a placebo (PBS) from the age of 32 wks to up to 40 wks of age. For this, mice were anaesthetized with intraperitoneal injection of ketamine (55 mg/ml) and xylazine (7-10 mg/ml) and surgically fitted with an Alzet miniosmotic pump (model 2004, Durect Co, CA) placed subcutaneously. Local subcutaneous injection of 0.5 ml of 0.5% lidocaine insured postoperative relief. Half of the mice received daily about 20 μg leptin in PBS (0.25 μl/h of 3.33 mg/ml recombinant murine leptin) and the other half were infused with PBS. Four from each group (two males and two females) were euthanized after 4 weeks treatment. Osmotic pumps were replaced in the rest and the mice then treated for a total period of 8 weeks. Wild-type littermates were also treated with leptin under high or low diet regimens. […]
In panel (a), plasma leptin was quantified in one year old mice with the following genotypes: i) double mutant APPSwe/PS1M146V ii) single mutant PS1M146V and iii) wild-type (a cross between C57BL/6Ntac and B6SJLF2). […] Plasma Aβ was also measured in these mice prior to treatment. […] In panel (c), plasma leptin was determined by radioimmunoassay (“RIA”) (LINCO Research, Inc.) in 8 month old Tg2576 and WT littermate mice and then again following treatments as described in FIG. 4b. Leptin also was measured in WT but not Tg2576 mice prior to treatment. In panel (d), plasma insulin was determined by RIA (LINCO Research, Inc.) in 8 month old WT and Tg2576 mice and then again following a 2 month LFD or HFD with (+) or without (−) leptin infusion. In panel (e), plasma total Aβ (Aβ40 (SEQ ID NO: 4) plus Aβ42/43 (SEQ ID NO: 5/SEQ ID NO: 6) was measured in 8 month Tg2576 mice and then again following a 2 month LFD or HFD with (+) or without (−) leptin infusion. […]

B1: Leptin: peptide hormone controlling adaptive metabolic mechanisms to energy availability; leptin (Harbor-UCLA) in vitro, recombinant murine leptin in mice (protein, UniProt P41160 22-167, looked up)
Leptin: VPIQKVQDDTKTLIKTIVTRINDISHTQSVSAKQRVTGLDFIPGLHPILSLSKMDQTLAVYQQVLTSLPSQNVLQIANDLENLRDLLHLLAFSKSCSLPQTSGLQKPESLDGVLEASLYSTEVVALSRLQGSLQDILQQLDVSPEC
- cholesterol-induced increase in C99 (β-secretase; 10 μM cholesterol in the presence of 400 ng/ml leptin): abolished
- C99 level (β-secretase; with L-685,458 (100 nM) or Z-VL-CHO (100 μM), 10 μM cholesterol or 400 ng/ml leptin alone): also was observed in the absence of cholesterol
- levels of circulating Aβ (total Aβ in the plasma) (Tg2576 mice; Tg2576, both diets, 2 month leptin infusion): lower the levels of circulating Aβ under both diets
- APP expression in adipocytes (Tg2576 mice; adipose tissue of mice under high or low fat diets, data not shown): no apparent influence
- fasting insulin levels (plasma, RIA) (Tg2576 mice; all groups (WT and Tg2576, LFD and HFD), 2 month leptin infusion): decreased fasting insulin levels in all groups
- brain Aβ load (Tg2576 mice; chronic administration, s.c. Alzet pump about 20 μg leptin daily, up to 8 weeks): reduced the brain Aβ load
